Data reported in PMC5740878.

Target: UHRF1-mCherry (UniProt Q96T88)
Assay: FRET or BRET; FLIM-FRET in fixed HeLa cells 24 h after co-transfection of TIP60-eGFP WT/mutants (donor) and UHRF1-mCherry (acceptor) 1:1; two-photon excitation at 930 nm; E = 1-(τDA/τD); one-component and two-component analysis of decays

Sequence of TIP60∆CRD-eGFP (Q92993 whole entry): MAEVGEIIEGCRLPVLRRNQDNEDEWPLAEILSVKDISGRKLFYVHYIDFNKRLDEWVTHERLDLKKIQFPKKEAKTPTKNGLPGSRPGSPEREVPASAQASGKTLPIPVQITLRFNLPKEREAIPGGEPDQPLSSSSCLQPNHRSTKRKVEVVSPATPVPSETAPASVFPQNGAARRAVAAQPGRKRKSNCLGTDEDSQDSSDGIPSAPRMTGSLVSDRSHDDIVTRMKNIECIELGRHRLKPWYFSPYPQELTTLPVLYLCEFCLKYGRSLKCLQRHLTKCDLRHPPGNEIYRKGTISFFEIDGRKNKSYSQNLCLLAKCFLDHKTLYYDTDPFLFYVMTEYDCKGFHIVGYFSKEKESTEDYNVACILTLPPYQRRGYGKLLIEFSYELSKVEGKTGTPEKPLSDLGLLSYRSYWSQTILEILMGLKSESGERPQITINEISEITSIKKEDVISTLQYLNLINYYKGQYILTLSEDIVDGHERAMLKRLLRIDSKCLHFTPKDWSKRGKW
Sequence of UHRF1-mCherry (Q96T88 whole entry): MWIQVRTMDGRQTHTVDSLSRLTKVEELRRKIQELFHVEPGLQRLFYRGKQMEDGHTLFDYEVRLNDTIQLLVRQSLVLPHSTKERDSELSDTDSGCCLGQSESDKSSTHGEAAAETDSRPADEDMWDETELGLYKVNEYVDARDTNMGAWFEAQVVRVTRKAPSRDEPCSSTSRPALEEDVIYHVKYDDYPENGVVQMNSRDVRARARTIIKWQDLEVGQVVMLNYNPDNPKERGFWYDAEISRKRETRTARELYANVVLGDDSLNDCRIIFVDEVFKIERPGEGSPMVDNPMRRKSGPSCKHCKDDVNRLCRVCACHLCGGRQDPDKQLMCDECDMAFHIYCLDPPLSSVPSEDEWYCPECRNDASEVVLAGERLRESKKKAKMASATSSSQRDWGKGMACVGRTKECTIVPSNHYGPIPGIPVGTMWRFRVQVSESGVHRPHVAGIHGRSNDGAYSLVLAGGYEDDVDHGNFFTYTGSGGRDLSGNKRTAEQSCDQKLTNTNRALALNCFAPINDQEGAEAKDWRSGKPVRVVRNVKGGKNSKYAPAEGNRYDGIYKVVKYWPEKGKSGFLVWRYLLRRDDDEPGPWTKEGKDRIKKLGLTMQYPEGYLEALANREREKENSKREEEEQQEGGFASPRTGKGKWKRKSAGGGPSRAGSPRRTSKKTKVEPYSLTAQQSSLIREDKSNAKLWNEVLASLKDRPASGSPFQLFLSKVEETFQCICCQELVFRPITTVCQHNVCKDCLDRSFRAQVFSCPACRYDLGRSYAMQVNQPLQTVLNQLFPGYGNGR

average FRET: 12.2%
average FRET of the short lifetime component, two-component model: 43%
mean short lifetime component (τ1), two-component model: 1.4 ns
population (α1) of the interacting short lifetime component: 19%
Substance: TIP60∆CRD-eGFP (from UniProt Q92993 1-513) (natural protein)
